Where a chain is given by its changes, count along the chain named. *1 amine or outer side, *2 acyl side, *3 side chain or, on linkers, in order; H or OH if unused. Bridges are numbered along the chain shown (N, C = ends). Where no end group is shown, it is not given here. mXylylene = c1cc(C[*:1])cc(C[*:2])c1; minicard = not defined here
B1: 11B8 (antibody, IgG3, V domains shown)
VH: EVQLVQSGGGLVHPGGSLRLSCTGSGFTFSYHAMHWVRQAPGKGLEWVSIIGTGGVTYYADSVKGRFTISRDNVKNSLYLQMNSLRAEDMAVYYCARDYYGAGSFYDGLYGMDVWGQGTTVTVSS
VL: EIVLTQSPATLSLSPGERATLSCRASQSVSSYLAWYQQKPGQAPRLLIYDASNRATGIPARFSGSGSGTDFTLTISSLEPEDFAVYYCQQRSDWPLTFGGGTKVEIK
notes: Human monoclonal IgG3,κ from hybridoma
B2: 7D8 (antibody, IgG1, V domains shown)
VH: EVQLVESGGGLVQPDRSLRLSCAASGFTFHDYAMHWVRQAPGKGLEWVSTISWNSGTIGYADSVKGRFTISRDNAKNSLYLQMNSLRAEDTALYYCAKDIQYGNYYYGMDVWGQGTTVTVSS
VL: B1 VL with D93N, L96I, G100Q, K103R, V104L
notes: Human monoclonal IgG1,κ from hybridoma
B3: 2F2 (antibody, V domains shown)
VH: B2 VH with D15G, H30N, T57S, N77K
VL: B1 VL with D93N, L96I, G100Q, K103R, V104L
modifications: FITC- or 125I-labelled in some assays; F(ab')2 fragments in some; the letters do not carry this
notes: Human monoclonal IgG1,κ from hybridoma; also called 4C9; HuMab 2F2 (hybridoma-derived)

Columns and labels:
Experiment in all cases: Pepscan ELISA, 10 µg/ml
AGIYAPI = molecular target: T1, AGIYAPI (also: covalently linked to polyethylene card)
T1 construct: 7-mer Pepscan peptide derived from human CD20
T1 peptide: AGIYAPI
From the text: (§1) In some cases chemical linkage of the legs of a 15-mer peptide helps to identify amino acid sequences of a potentially discontinuous epitope. […] The 9- and 15-mers were synthesized as loops and screened using credit-card format mini-PEPSCAN cards (455 peptide format/card). In all looped peptides amino acids at varied positions were replaced by a cysteine (e.g., acetyl-XCXXXXXXXXCX-minicard). The peptides were synthesized using standard Fmoc-chemistry and deprotected using TFA with scavengers. Subsequently, the deprotected peptides were reacted on the microarray with an 0.5 mM solution of 1,3-bis(bromomethyl)-benzene in ammonium bicarbonate (20 mM, pH 7.9), supplemented with acetonitrile (1:1 (v/v)). The microarrays were gently shaken in the solution for 30-60 min, while completely covered in the solution. Finally, the microarrays were washed extensively with excess of Millipore H₂O and sonicated in disrupt-buffer containing 1% sodium dodecylsulfate, 0.1% β-mercaptoethanol, in PBS (pH 7.2) at 70° C. for 30 min, followed by sonication in millipore H₂O for another 45 min. Subsequently, the microwells were ready for screening in an ELISA-assay.
(§2) […] After washing, the peptides were incubated with anti-human antibody peroxidase (dilution 1:1000, 1 hour, 25° C.), and after washing the peroxidase substrate, 2,2′-azino-di-3-ethylbenzthiazolin sulfonate and 2 μl/ml 3% H₂O₂ were added. After one hour, the color development was measured. The color development of the ELISA was quantified with a CCD-camera and an image processing system.

NCYNAEPANPSEKCS = molecular target: T2, NCYNAEPANPSEKCS (linker 2-14 via 1,3‑bis(bromomethyl)‑benzene (inferred); reading uncertain)
T2 construct: 15-mer looped Pepscan peptide derived from human CD20, Cys put in at two positions
T2 peptide: Ac-NCYNAEPANPSEKCS-minicard
From the text: as §1, §2

CAHTPYINC = molecular target: T3, CAHTPYINC (linker 1-9 via 1,3‑bis(bromomethyl)‑benzene (inferred); not fully specified (C-terminus); also: covalently linked to minicard)
T3 construct: 9-mer looped Pepscan peptide derived from human CD20
T3 peptide: CAHTPYINC
From the text: as §1, §2

KMESCNFIRACTPYI = molecular target: T4, KMESCNFIRACTPYI (linker 5-11 via 1,3‑bis(bromomethyl)‑benzene (inferred); reading uncertain)
T4 construct: 15-mer looped Pepscan peptide derived from human CD20, Cys put in at two positions
T4 peptide: Ac-KMESCNFIRACTPYI-minicard
From the text: as §1, §2

KMECLNFIRAHCPYI = molecular target: T5, KMECLNFIRAHCPYI (linker 4-12 via 1,3‑bis(bromomethyl)‑benzene (inferred); reading uncertain)
T5 construct: 15-mer looped Pepscan peptide derived from human CD20, Cys put in at two positions
T5 peptide: Ac-KMECLNFIRAHCPYI-minicard
From the text: as §1, §2

YCAEPANPSEKNSCS = molecular target: T6, YCAEPANPSEKNSCS (linker 2-14 via 1,3‑bis(bromomethyl)‑benzene (inferred); reading uncertain)
T6 construct: 15-mer looped Pepscan peptide derived from human CD20, Cys put in at two positions
T6 peptide: Ac-YCAEPANPSEKNSCS-minicard
From the text: as §1, §2

GIYAPIC = molecular target: T7, GIYAPIC (also: covalently linked to polyethylene card)
T7 construct: 7-mer Pepscan peptide derived from human CD20
T7 peptide: GIYAPIC
From the text: as §1, §2

IPAGIYA = molecular target: T8, IPAGIYA (also: covalently linked to polyethylene card)
T8 construct: 7-mer Pepscan peptide derived from human CD20
T8 peptide: IPAGIYA
From the text: as §1, §2

MESLCFIRAHCPYIN = molecular target: T9, MESLCFIRAHCPYIN (linker 5-11 via 1,3‑bis(bromomethyl)‑benzene (inferred); reading uncertain)
T9 construct: 15-mer looped Pepscan peptide derived from human CD20, Cys put in at two positions
T9 peptide: Ac-MESLCFIRAHCPYIN-minicard
From the text: as §1, §2

LKMECLNFIRCHTPY = molecular target: T10, LKMECLNFIRCHTPY (linker 5-11 via 1,3‑bis(bromomethyl)‑benzene (inferred); reading uncertain)
T10 construct: 15-mer looped Pepscan peptide derived from human CD20, Cys put in at two positions
T10 peptide: Ac-LKMECLNFIRCHTPY-minicard
From the text: as §1, §2

NCEPANPSEKNSPCT = molecular target: T11, NCEPANPSEKNSPCT (linker 2-14 via 1,3‑bis(bromomethyl)‑benzene (inferred); reading uncertain)
T11 construct: 15-mer looped Pepscan peptide derived from human CD20, Cys put in at two positions
T11 peptide: Ac-NCEPANPSEKNSPCT-minicard
From the text: as §1, §2

CRAHTPYIC = molecular target: T12, CRAHTPYIC (linker 1-9 via 1,3‑bis(bromomethyl)‑benzene (inferred); not fully specified (C-terminus); also: covalently linked to minicard)
T12 construct: 9-mer looped Pepscan peptide derived from human CD20
T12 peptide: CRAHTPYIC
From the text: as §1, §2

IYAPIAV = molecular target: T13, IYAPIAV (also: covalently linked to polyethylene card)
T13 construct: 7-mer Pepscan peptide derived from human CD20 (A in place of the C of IYAPICV)
T13 peptide: IYAPIAV
From the text: as §1, §2

ICIYNAEPANPSECN = molecular target: T14, ICIYNAEPANPSECN (linker 2-14 via 1,3‑bis(bromomethyl)‑benzene (inferred); reading uncertain)
T14 construct: 15-mer looped Pepscan peptide derived from human CD20, Cys put in at two positions
T14 peptide: Ac-ICIYNAEPANPSECN-minicard
From the text: as §1, §2

YCNIYNAEPANPSCK = molecular target: T15, YCNIYNAEPANPSCK (linker 2-14 via mXylylene; reading uncertain)
T15 construct: 15-mer looped Pepscan peptide derived from human CD20, Cys put in at two positions
T15 peptide: Ac-YCNIYNAEPANPSCK-minicard
From the text: as §1, §2

PCINIYNAEPANPCE = molecular target: T16, PCINIYNAEPANPCE (linker 2-14 via 1,3‑bis(bromomethyl)‑benzene (inferred); reading uncertain)
T16 construct: 15-mer looped Pepscan peptide derived from human CD20, Cys put in at two positions
T16 peptide: Ac-PCINIYNAEPANPCE-minicard
From the text: as §1, §2

ACPANPSEKNSPSCQ = molecular target: T17, ACPANPSEKNSPSCQ (linker 2-14 via 1,3‑bis(bromomethyl)‑benzene (inferred); reading uncertain)
T17 construct: 15-mer looped Pepscan peptide derived from human CD20, Cys put in at two positions
T17 peptide: Ac-ACPANPSEKNSPSCQ-minicard
From the text: as §1, §2

CIRAHTPYC = molecular target: T18, CIRAHTPYC (linker 1-9 via 1,3‑bis(bromomethyl)‑benzene (inferred); not fully specified (C-terminus); also: covalently linked to minicard)
T18 construct: 9-mer looped Pepscan peptide derived from human CD20
T18 peptide: CIRAHTPYC
From the text: as §1, §2

PAGIYAP = molecular target: T19, PAGIYAP (also: covalently linked to polyethylene card)
T19 construct: 7-mer Pepscan peptide derived from human CD20
T19 peptide: PAGIYAP
From the text: as §1, §2

ECANPSEKNSPSTCY = molecular target: T20, ECANPSEKNSPSTCY (linker 2-14 via 1,3‑bis(bromomethyl)‑benzene (inferred); reading uncertain)
T20 construct: 15-mer looped Pepscan peptide derived from human CD20, Cys put in at two positions
T20 peptide: Ac-ECANPSEKNSPSTCY-minicard
From the text: as §1, §2

CFIRAHTPC = molecular target: T21, CFIRAHTPC (linker 1-9 via 1,3‑bis(bromomethyl)‑benzene (inferred); not fully specified (C-terminus); also: covalently linked to minicard)
T21 construct: 9-mer looped Pepscan peptide derived from human CD20
T21 peptide: CFIRAHTPC
From the text: as §1, §2

ICNAEPANPSEKNCP = molecular target: T22, ICNAEPANPSEKNCP (linker 2-14 via 1,3‑bis(bromomethyl)‑benzene (inferred); reading uncertain)
T22 construct: 15-mer looped Pepscan peptide derived from human CD20, Cys put in at two positions
T22 peptide: Ac-ICNAEPANPSEKNCP-minicard
From the text: as §1, §2

IYAPICV = molecular target: T23, IYAPICV (also: covalently linked to polyethylene card)
T23 construct: 7-mer Pepscan peptide derived from human CD20
T23 peptide: IYAPICV
From the text: as §1, §2

| Binder | OD (absorbance) (AGIYAPI) [OD] | OD (absorbance) (NCYNAEPANPSEKCS) [OD] | OD (absorbance) (CAHTPYINC) [OD] | OD (absorbance) (KMESCNFIRACTPYI) [OD] | OD (absorbance) (KMECLNFIRAHCPYI) [OD] | OD (absorbance) (YCAEPANPSEKNSCS) [OD] | OD (absorbance) (GIYAPIC) [OD] | OD (absorbance) (IPAGIYA) [OD] | OD (absorbance) (MESLCFIRAHCPYIN) [OD] | OD (absorbance) (LKMECLNFIRCHTPY) [OD] | OD (absorbance) (NCEPANPSEKNSPCT) [OD] | OD (absorbance) (CRAHTPYIC) [OD] | OD (absorbance) (IYAPIAV) [OD] | OD (absorbance) (ICIYNAEPANPSECN) [OD] | OD (absorbance) (YCNIYNAEPANPSCK) [OD] | OD (absorbance) (PCINIYNAEPANPCE) [OD] | OD (absorbance) (ACPANPSEKNSPSCQ) [OD] | OD (absorbance) (CIRAHTPYC) [OD] | OD (absorbance) (PAGIYAP) [OD] | OD (absorbance) (ECANPSEKNSPSTCY) [OD] | further results |
| --- | --- | --- | --- | --- | --- | --- | --- | --- | --- | --- | --- | --- | --- | --- | --- | --- | --- | --- | --- | --- | --- |
| B1 | 251 | 93 | 179 | 625 | 763 | 106 | 99 | 217 | 179 | 165 | 159 | 427 | 161 | 138 | 287 | 118 | 146 | 151 | 449 | 134 | OD (absorbance) (CFIRAHTPC): 188 OD; OD (absorbance) (ICNAEPANPSEKNCP): 115 OD; OD (absorbance) (IYAPICV): 137 OD |
| B2 | 188 | 121 | 174 | 142 | 134 | 188 | 152 | 164 | 127 | 160 | 183 | 188 | 181 | 192 | 181 | 163 | 148 | 186 | 170 | 179 | OD (absorbance) (CFIRAHTPC): 181 OD; OD (absorbance) (ICNAEPANPSEKNCP): 165 OD; OD (absorbance) (IYAPICV): 174 OD |
| B3 | 44 | 49 | 42 | 39 | 48 | 65 | 34 | 48 | 41 | 49 | 61 | 48 | 62 | 78 | 86 | 65 | 77 | 57 | 43 | 68 | OD (absorbance) (CFIRAHTPC): 91 OD; OD (absorbance) (ICNAEPANPSEKNCP): 43 OD; OD (absorbance) (IYAPICV): 58 OD |

Source: patent publication US20040167319A1 (Genmab, published 2004)
